This is an account of results in paper PMC8429565, “Conformational rearrangements enable iterative backbone N-methylation in RiPP biosynthesis” (Nature Communications, 2021).

B1: his6-SonM, wild type, individually expressed (enzyme, Shewanella oneidensis MR-1, UniProt Q8EGW3 1-263, looked up)
chain: MGSLVCVGTGLQLAGQISVLSRSYIEHADIVFSLLPDGFSQRWLTKLNPNVINLQQFYAQNGEVKNRRDTYEQMVNAILDAVRAGKKTVCALYGHPGVFACVSHMAITRAKAEGFSAKMEPGISAEACLWADLGIDPGNSGHQSFEASQFMFFNHVPDPTTHLLLWQIAIAGEHTLTQFHTSSDRLQILVEQLNQWYPLDHEVVIYEAANLPIQAPRIERLPLANLPQAHLMPISTLLIPPAKKLEYNYAILAKLGIGPEDLG
notes: SonM (SO1478), α-N-methyltransferase of Shewanella oneidensis MR-1, 263 AA; gene sonM amplified from genomic DNA; also called wt; source: E. coli BL21(DE3), pET28b, purified (Ni-NTA or HisTrap, Superdex 200 SEC); not shown: His6, N-terminal, kept

Series [1] deals with the molecule itself. Put plainly: SEC; oligomeric state of individually expressed and purified SonM and SonA (Supplementary Fig. 6); Superdex 200 in 50 mM HEPES pH 8, 300 mM NaCl, 10% glycerol is the sizing step of the purification. (Size exclusion chromatography separates by hydrodynamic size, large species first.)
Series [2] concerns the target B1. The experiment in a line: enzyme inhibition kinetics (continuous coupled methyltransferase assay, A340); apparent Ki; 5 μM wt SonM, saturating SAM (1 mM), varying concentrations of SonA and of the inhibitor (SonA-BBD or SonA-2Me); non-linear regression in GraphPad Prism 8. Particulars: both partners purified.
Series [3] concerns the target T1, his6-SonM-R67K, individually expressed (Shewanella oneidensis MR-1, UniProt Q8EGW3 1-263, SonM-R67K).
T1 sequence (looked up): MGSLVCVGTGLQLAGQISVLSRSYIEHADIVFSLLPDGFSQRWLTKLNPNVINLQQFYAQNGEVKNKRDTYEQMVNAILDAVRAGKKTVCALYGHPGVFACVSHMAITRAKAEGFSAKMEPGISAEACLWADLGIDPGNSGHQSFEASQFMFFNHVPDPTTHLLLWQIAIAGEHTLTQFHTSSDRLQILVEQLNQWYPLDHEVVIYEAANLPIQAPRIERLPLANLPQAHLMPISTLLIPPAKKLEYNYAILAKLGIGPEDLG
Put plainly: cell-based or functional assay.

Series [4] addresses T2, his6-SonM-Y93F, individually expressed (Shewanella oneidensis MR-1, UniProt Q8EGW3 1-263, SonM-Y93F).
T2 sequence (looked up): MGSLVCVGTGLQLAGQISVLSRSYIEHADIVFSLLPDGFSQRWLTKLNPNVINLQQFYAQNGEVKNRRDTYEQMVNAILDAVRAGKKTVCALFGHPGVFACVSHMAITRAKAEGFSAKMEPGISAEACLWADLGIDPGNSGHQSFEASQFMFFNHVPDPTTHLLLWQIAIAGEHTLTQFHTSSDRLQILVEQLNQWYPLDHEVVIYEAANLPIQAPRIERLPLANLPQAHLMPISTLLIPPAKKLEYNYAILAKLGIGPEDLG
Put plainly: cell-based or functional assay.

In series [5] the target is T3, his6-SonM-Y71F, individually expressed (Shewanella oneidensis MR-1, UniProt Q8EGW3 1-263, SonM-Y71F).
T3 sequence (looked up): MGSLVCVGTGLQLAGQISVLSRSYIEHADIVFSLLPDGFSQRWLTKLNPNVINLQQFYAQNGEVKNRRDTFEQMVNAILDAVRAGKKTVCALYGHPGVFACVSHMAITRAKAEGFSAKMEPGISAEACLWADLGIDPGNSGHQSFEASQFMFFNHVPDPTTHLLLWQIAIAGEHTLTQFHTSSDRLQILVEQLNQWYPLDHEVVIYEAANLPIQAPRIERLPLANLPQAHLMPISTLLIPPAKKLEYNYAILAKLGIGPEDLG
The experiment in a line: cell-based or functional assay.

The target in series [6] is B1. Put plainly: cell-based or functional assay.
Series [7] concerns the target T4, his6-SonM-Y58F, individually expressed (Shewanella oneidensis MR-1, UniProt Q8EGW3 1-263, SonM-Y58F).
T4 sequence (looked up): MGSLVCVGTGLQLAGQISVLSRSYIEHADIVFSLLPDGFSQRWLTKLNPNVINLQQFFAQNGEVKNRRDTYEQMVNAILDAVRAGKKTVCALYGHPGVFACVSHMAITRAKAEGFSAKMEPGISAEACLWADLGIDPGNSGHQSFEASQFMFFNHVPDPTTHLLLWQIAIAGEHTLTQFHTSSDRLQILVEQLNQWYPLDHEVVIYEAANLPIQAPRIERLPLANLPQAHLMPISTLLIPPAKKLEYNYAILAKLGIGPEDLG
The experiment in a line: cell-based or functional assay.

For orientation: stoichiometry N means a count of units in the complex or per binding partner. For B1, the “stoichiometry N” value in series [1] stood at 2.

B2: SonA borosin binding domain only construct (SonA-BBD; 1-55) (domain or fragment, Shewanella oneidensis MR-1, UniProt Q8EGW2 1-55, looked up)
chain: MSGLSDFFTQLGQDAQLMEDYKQNPEAVMRAHGLTDEQINAVMTGDMEKLKTLSG
notes: SonA (SO1479) of Shewanella oneidensis MR-1, helical bundle composed of the first 55 amino acids (1-55); The his6 tag is stated for the individual construct; for the co-expression construct it is surmised from the template plasmid pMF1181; also called BBD-SonA; his6-SonA-BBD
In the case of B2, the Ki in series [2] stood at 3.9 µM.

B3: unmethylated SonA precursor peptide (SonA-0Me), his6-tagged (natural protein, Shewanella oneidensis MR-1, UniProt Q8EGW2 1-71, looked up)
chain: MSGLSDFFTQLGQDAQLMEDYKQNPEAVMRAHGLTDEQINAVMTGDMEKLKTLSGDSSYQSYLVISHGNGD
For the molecule B3, the “apparent KM for SonA, coupled methyltransferase kinetics assay, saturating SAM” value is 18 µM in series [3]; 6.2 µM in series [4]; 9.6 µM in series [5]; 8.2 µM in series [6]; 7.6 µM in series [7].

B4: doubly α-N-methylated SonA precursor peptide (SonA-2Me), his6-tagged (natural protein, Shewanella oneidensis MR-1, UniProt Q8EGW2 1-71, looked up)
chain: MSGLSDFFTQLGQDAQLMEDYKQNPEAVMRAHGLTDEQINAVMTGDMEKLKTLSGDSSYQSYLVISHGNGD
modifications: N-methyl-L-leucine (MLE) at 63; N-methyl-L-isoleucine (IML) at 65 (backbone α-N-methylations)
notes: SonA (SO1479), borosin precursor peptide of Shewanella oneidensis MR-1; BBD leader 1-53, linker 54-61, core peptide 62-71; also called doubly methylated SonA; SO1479; source: E. coli BL21(DE3), co-expressed from pET28b with SonM, purified (Ni-NTA or HisTrap, Superdex 200 SEC)
For B4, the Ki in series [2] was 160 µM.
